{
  "source": "paper PMC2198831",
  "about": "(The Journal of Cell Biology, 2001)",
  "key": {"[1]": {"target": "yeast actin monomers (S. cerevisiae, UniProt P60010 1-375)", "assay": "native gel or EMSA"}, "[2]": {"target": "T1, yeast capping protein Cap1/2p, purified (S. cerevisiae, UniProt P28495;P13517)", "T1 sequence 1": "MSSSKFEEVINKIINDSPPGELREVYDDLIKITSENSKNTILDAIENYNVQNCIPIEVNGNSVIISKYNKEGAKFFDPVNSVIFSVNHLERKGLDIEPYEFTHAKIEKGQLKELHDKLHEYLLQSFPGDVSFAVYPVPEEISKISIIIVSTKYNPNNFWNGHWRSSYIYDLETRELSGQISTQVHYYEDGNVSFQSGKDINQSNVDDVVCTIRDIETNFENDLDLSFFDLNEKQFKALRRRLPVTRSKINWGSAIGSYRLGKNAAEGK", "T1 sequence 2": "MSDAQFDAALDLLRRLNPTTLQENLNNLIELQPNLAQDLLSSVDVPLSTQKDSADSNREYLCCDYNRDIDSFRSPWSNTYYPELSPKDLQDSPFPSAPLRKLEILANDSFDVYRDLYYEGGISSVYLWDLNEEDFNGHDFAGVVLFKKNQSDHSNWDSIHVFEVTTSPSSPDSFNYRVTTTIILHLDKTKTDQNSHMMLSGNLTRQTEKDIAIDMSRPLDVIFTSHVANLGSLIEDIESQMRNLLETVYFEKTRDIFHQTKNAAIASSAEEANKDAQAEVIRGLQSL", "assay": "native gel or EMSA"}},
  "data": [
    {"binder": "yeast twinfilin (Twf1p), wild type, purified recombinant (natural protein) MSTQSGIVAEQALLHSLNENLSADGIVIIIAKISPDSTSVHQTQVARSFEELVQLASQEREPLYIFYKPEGLDKYFFVSFIPDGSPVRSRMLYASTKNTLARQVGSNSLSTEQPLITDAQDLVDLKNFDSARPAGQNKPLTHDEEMQIEINKQQALLRKNTSVKLVSQDSASPLSLTFRVNSEKPINEILDSEGKNLIIFQIDPSNETIQIVQSDTCPSVDELYIDLPGPSYTIFRQGDSSFFIYSCPSGSKVKDRMIYASNKNGFINYLKNDQKIAFSKVVEIGDFVELDKSLLMATNKEDSLDHGSNPDLPNKSNLKFNKPKGPLRKRRT", "values": [
      {"measurement": "binding result", "setting": "[1]", "value": "binds"},
      {"measurement": "binding result", "setting": "[2]", "value": "binds"}
    ]},
    {"binder": "Twf1-3p mutant yeast twinfilin (alanines in both ADF-H domains) (natural protein) MSTQSGIVAEQALLHSLNENLSADGIVIIIAKISPDSTSVHQTQVARSFEELVQLASQEREPLYIFYKPEGLDKYFFVSFIPDGSPVASAMLYASTKNTLARQVGSNSLSTEQPLITDAQDLVDLKNFDSARPAGQNKPLTHDEEMQIEINKQQALLRKNTSVKLVSQDSASPLSLTFRVNSEKPINEILDSEGKNLIIFQIDPSNETIQIVQSDTCPSVDELYIDLPGPSYTIFRQGDSSFFIYSCPSGSKVADAMIYASNKNGFINYLKNDQKIAFSKVVEIGDFVELDKSLLMATNKEDSLDHGSNPDLPNKSNLKFNKPKGPLRKRRT", "values": [
      {"measurement": "binding result", "setting": "[2]", "value": "binds"}
    ]}
  ]
}
